The values below come from the supplement of paper PMC12764529.

± gives the half width of the 95% confidence interval.

Data set [1] is described as follows: folding stability dG unfold from trypsin proteolysis; higher = more stable. The procedure, abridged:
(§1)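 Bayesian fitting of sequencing counts gave K50 for each design. Unfolding free energy followed by setting this against a sequence-predicted unfolded-state K50 and a shared folded-state K50, either per protease or with trypsin and chymotrypsin combined. The designs, under 80 residues and lacking cysteine, were digested in a PA-tagged cDNA display format at 11 threefold-diluted protease concentrations and without protease, and only those with AlphaFold2 dimer inter-PAE above 15 were kept.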

Data set [2] is described as follows: folding stability dG unfold (combined trypsin and chymotrypsin); higher = more stable. The procedure, abridged: as §1
Data set [3] can be described thus: folding stability dG unfold from chymotrypsin proteolysis; higher = more stable. The method, boiled down:
as §1

Regarding “SAMTIEEAIEKGKIGAIVKVEVELPNGGKIEIEIFIESESLEEALEKIKAFFEALNLKVKIIEVKVFPVSAG [r14_854_TrMRF]”, the results for the “folding stability dG unfold” value in data set [1], in data set [2] and in data set [3] were 3.4 ± 0.19 kcal/mol, 3.09 ± 0.36 kcal/mol and 2.87 ± 0.1 kcal/mol, respectively.

As for “SAMTITVPPDVSLEQIAKLLGYPNLKSFTKRKVTPNLTPATLTVPEDPNKVIKVLYRPADNYTEVIVLQSAG [r14_713_JUSTAS]”, the “folding stability dG unfold” value came to 1.02 ± 0.1 kcal/mol in data set [1], 0.921 ± 0.16 kcal/mol in data set [2] and 0.822 ± 0.3 kcal/mol in data set [3].

With “SAMTPEEIKERLAAELPPSAEVMTTETFKEGDVEYVKITLRTPDSLSEATYNLETGEIERTPIGLDVPQSAG [r14_737_JUSTAS]”, the “folding stability dG unfold” value came out at 0.423 ± 0.13 kcal/mol in data set [1], 0.792 ± 0.15 kcal/mol in data set [2] and 0.923 ± 0.13 kcal/mol in data set [3].

On to “SAMTTTETFEEGDYVYTVITTKIPSSLPPDSVVTIPVTTPLGAESEVVSEPGGTITVKVRLKKEDPELLSAG [r14_754_JUSTAS]”, for which the “folding stability dG unfold” value in data set [1] is -1.57 ± 0.3 kcal/mol; in data set [2], -0.176 ± 0.13 kcal/mol; in data set [3], 0.14 ± 0.088 kcal/mol.

As to “SAMTVELTLPSEELVEKIKELLPSYVKIEKVEVDEETKTVTVTVSFDPNLSPEEQQAVVEKIKKLIEEKSAG [r14_306_JUSTAS]”, the “folding stability dG unfold” value in data set [1] was 2.7 ± 0.2 kcal/mol; in data set [2], 3.4 ± 0.28 kcal/mol; in data set [3] it was 3.56 ± 0.26 kcal/mol.

Take “SAMVEVSTLPDGTTRVTITGKDPAAFEKELAELIEKIKKEGINATITKTREEPIPEEPELYRAELEIIVSAG [r14_119_JUSTAS]”: the “folding stability dG unfold” value was determined as 1.54 ± 0.062 kcal/mol in data set [1], 1.54 ± 0.25 kcal/mol in data set [2] and 1.48 ± 0.055 kcal/mol in data set [3].

“SAMVIIRVENKDGKTIEIAIPVRNEDGKLTKEELEELAKRLAEELAEELGLEDVKVEVEVRPLSEEELKSAG [r14_378_TrROS_Hall]”: the “folding stability dG unfold” value was 1.64 ± 0.091 kcal/mol in data set [1], 2.35 ± 0.17 kcal/mol in data set [2] and 2.68 ± 0.081 kcal/mol in data set [3].

“SAMVITIHPDIPLEELAELLGFPEIEDATVEPLNEGIVPATFHIPEDPDKVILIDFNPEPDFALVLVLSSAG [r14_713_TrMRF]”: the figures for the “folding stability dG unfold” value in data set [1], in data set [2] and in data set [3] were 1.59 ± 0.067 kcal/mol, 1.98 ± 0.17 kcal/mol and 2.25 ± 0.038 kcal/mol, respectively.

On to “SAMVLVKIELYDPENEEPLATAEFVVPEEDLEAFVEEAKKIFGVAEDAFIKVEAAPLEPLTDESGEEVLSAG [r14_297_TrMRF]”, for which the “folding stability dG unfold” value in data set [1] was determined as 2.08 ± 0.12 kcal/mol; in data set [2], 1.94 ± 0.062 kcal/mol; in data set [3], 1.786 ± 0.014 kcal/mol.

With “SAMVRIERLPDGSLLVVVESEGKEEGLEFIERFIEEIKSLGIDAEIELLSIEEIPEDPKRYRATFLIKASAG [r14_119_TrMRF]”, the figures for the “folding stability dG unfold” value in data set [1], in data set [2] and in data set [3] were 4.83 ± 0.22 kcal/mol, greater than 6 kcal/mol and 6.12 ± 0.27 kcal/mol, respectively.

With “SAMVSPEEAAKLIAEKIREEHPDPNIVVPVKVEYDPETNTTTITVTVKYPDDPSTETFTYTLAPDDVLKSAG [r14_849_JUSTAS]”, the “folding stability dG unfold” value in data set [1] is 1.53 ± 0.044 kcal/mol; in data set [2], 1.9 ± 0.082 kcal/mol; in data set [3] it was 2.19 ± 0.11 kcal/mol.

Regarding “SAMVTARVSDSVLRAYRLPDGYVRLVVFDPKTGEPVVEFVVPEDLITDIVEVGDKAVIHVDVKEEDLKLSAG [r14_755_TrMRF]”, the “folding stability dG unfold” value came to 1.28 ± 0.043 kcal/mol in data set [1], 1.69 ± 0.077 kcal/mol in data set [2] and 1.98 ± 0.064 kcal/mol in data set [3].

Regarding “SAMVVSEELSPEGTRTTTTFNPATGTSTTTTTPIPEEPPLPPVSIPTSLSPEEREALREELEAAGVPVVLGS [r1_242_JUSTAS]”, the entries for the “folding stability dG unfold” value in data set [1], in data set [2] and in data set [3] were 1.22 ± 0.047 kcal/mol, 0.652 ± 0.079 kcal/mol and 0.0811 ± 0.093 kcal/mol, respectively.

Regarding “SANEKVTVEVKIRFYFRFPKGQPFPFDITVPVTVEYDPNDPDKAKEEAKEKAIDEAIDEFRERFGYPLPSAG [r14_117_TrROS]”, the “folding stability dG unfold” value came to 1.75 ± 0.13 kcal/mol in data set [1], 2.37 ± 0.19 kcal/mol in data set [2] and 2.72 ± 0.13 kcal/mol in data set [3].

For the sequence “SANMDMPPGFKPIARDDDITIWQNPNPVYIMIRGPDGKHKMLPFNPGDPEKIKDLIREFADDGITDIMISAG [r14_12_TrROS]”, the “folding stability dG unfold” value in data set [1] came out at 1.43 ± 0.016 kcal/mol; in data set [2], 1.09 ± 0.15 kcal/mol; in data set [3] it was 0.657 ± 0.12 kcal/mol.

For “SANTRSIPFPGSADDIVDEIKNLIDANPDVKIRIQPMDGEEYEIDIEGIEKIKVERMPDGWYMITVELPSAG [r14_807_TrROS]”, the entries for the “folding stability dG unfold” value in data set [1], in data set [2] and in data set [3] were 0.283 ± 0.33 kcal/mol, 1.16 ± 0.21 kcal/mol and 1.63 ± 0.13 kcal/mol, respectively.

Consider “SANVRRREIRIPAKDMPPNQIRDALRDLGFPPSKIENLDIERHKGNMITVKIYWTFENGQKQKIELHIPSAG [r14_30_TrROS]”, for which the entries for the “folding stability dG unfold” value in data set [1], in data set [2] and in data set [3] were -0.105 ± 0.24 kcal/mol, 1.11 ± 0.19 kcal/mol and 1.29 ± 0.21 kcal/mol, respectively.

Turning to “SANWHRFTIEAWVPVRDPNGKPIRPEQVEEQAERIANELWPRGFPIKDVTVEQHPDGWVRITATIEVPDSAG [r14_470_TrROS]”, the “folding stability dG unfold” value in data set [1] amounted to 2.47 ± 0.08 kcal/mol; in data set [2], 2.94 ± 0.11 kcal/mol; in data set [3], 3.137 ± 0.022 kcal/mol.
